The supplement of paper PMC9170038

Legend:
MS2 coat protein [1] = test: apparent KD of MS2 coat protein; designed switch direction (-1 OFF switch, 1 ON switch): 1; higher = weaker reporter binding
How it was run: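 The apparent KD reported per design is the median over clusters of curve fits to normalised cluster fluorescence. The RNA switches were transcribed on Illumina chips by stalled E. coli RNA polymerase. SNAP-549-labelled MS2 coat protein was titrated from 0.7 or 1.5 nM, doubling up to 3 µM, in Tris-HCl pH 7.5 buffer containing KCl, MgCl2, BSA, DTT, tRNA and Tween-20, with no input, 200 uM small-molecule ligand, or an oligonucleotide input.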

MS2 coat protein [2] = test: apparent KD of MS2 coat protein; higher = weaker reporter binding; details: Eterna round: R107
How it was run: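 The designed RNA switches were transcribed on-chip from Illumina sequencing clusters. In 100 mM Tris-HCl pH 7.5, 80 mM KCl and 4 mM MgCl2, without or with constant ligand, they were titrated with SNAP-549-labelled MS2 coat protein from 0.7 or 1.5 nM to 3 µM in twofold steps. Apparent KD is the per-design median of normalised cluster binding-curve fits.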

[3] = input ligand: microRNA oligo, concentration not stated
[4] = Eterna round: R95, input ligand: FMN 200 uM
[5] = Eterna round: R95, input ligand: microRNA oligo, concentration not stated
[6] = Eterna round: R95, input ligand: none
[7] = input ligand: theophylline 20 uM
[8] = input ligand: tryptophan 2.4 mM

Row | Sequence | apparent KD of MS2 coat protein (MS2 coat protein [1]; [3]) [nM] | apparent KD of MS2 coat protein (MS2 coat protein [1]; input ligand: FMN 200 uM) [nM] | apparent KD of MS2 coat protein (MS2 coat protein [1]; input ligand: none) [nM] | other results
1 | AAAAAACAUGAGGAUCACCCAUGUCUUUUGACAUGAGGAUAUGUACAGACUUCGGUCUGUACAGAAGGCAUGUAAA [SS1 - 1028] (Eterna round: R96, puzzle: Same State 1) | 336 | – | – | –
2 | AAAAGAAACACAGGAUAUACCGCACUUAACGCGGUAGAAGGGUGGGACAUGAGGAUCACCCAUGUGGUCUGGGCGCCAGACCGC [Esratean] (Eterna round: R96, puzzle: Same State NG 1) | 23.3 | 29.1 | 22 | –
3 | AAAAGAAACGCAGGAUAUGCACAUGAGGAUCACCCAUGUCCCACAGGCUCGACCGAGCCCGUGAAGCAGAAGGGUGUAAGAAAA [Redibere] (Eterna round: R96, puzzle: Same State NG 2) | 426 | 82.5 | 3390 | –
4 | AAAAGAACCACAGGAUAUACACUCCUAGCGGCGGUAGAAGGGUGGAACAUGAGGAUCACCCAUGUACGUCUGGAAUCAGACUAA [Radianis] (Eterna round: R96, puzzle: Same State NG 1) | 233 | 267 | 857 | –
5 | AAAAGACAUGAGGAUCACCCAUGUCAAGACGUGGGAGGAUAUGCAUGGAAAACAUGCUGUGCAGAAGGCCCGUGUC [SS1 - 20] (Eterna round: R96, puzzle: Same State 1) | 16.6 | 16.2 | 24 | –
6 | AAAAGACAUGAGGAUCACCCAUGUGAAAACGUAGGAGGAUAUGUCGUGAAAAAAGACUUGACAGAAGGCCUGUGUC [SS1 - 34] (Eterna round: R96, puzzle: Same State 1) | 88.9 | – | – | –
7 | AAAAUAUAAAGAGAGGAUAUCCAAAGAACCACAUGAGGAUCACCCAUGUAAAGAAAGAAUAAGUGGGAGAAGGCUCAAAUAAUAA [Designing denovo 24] (Eterna round: R96, puzzle: Same State 2) | 82.8 | 24.8 | 114 | –
8 | AAACACGGCAAAACGCCGUGACAUGAGGAUCACCCAUGUACACAGGAUAUCAUGGCAAAACACCAUGAGAAGGGUGAUCAAGAC [Zaleala] (Eterna round: R96, puzzle: Same State NG 3) | 26.1 | 30.7 | 34.9 | –
9 | AAACAUGAGCGAGGAUAUGCGGACGAUUACGCUGUAGAAGGCGCAUGUAAAACAACAUGAGGAUCACCCAUGUCAUGUACAUGA (Eterna round: R96, puzzle: Same State NG 1) | 50.4 | 81.3 | 83.6 | –
10 | AAACAUGAGGAUCACCCAUGUCGAUCAGAACUCUGAUCUGCUCAGGAUAUCCGAAUGCGCGUUUCGGAGAAGGGAGAAAUGUGA [Lareraedqu] (Eterna round: R96, puzzle: Same State NG 3) | 36.4 | 69.8 | 53.2 | –
11 | AAACCCAGUCUGUAGGAUAUGCACCUGCCGACAUGAGGAUCACCCAUGUACCCUAACAACAGCGUGCAGAAGGGCAGCAAUAAAA [Verilara] (puzzle: Same State 2) | – | – | – | apparent KD of MS2 coat protein (MS2 coat protein [1]; [4]): 19.2 nM; apparent KD of MS2 coat protein (MS2 coat protein [1]; [5]): 22.9 nM; apparent KD of MS2 coat protein (MS2 coat protein [1]; [6]): 26.3 nM
12 | AAACGGCCCAACGGAGGGCCACAUGAGGAUCACCCAUGUACAUAGGAUAUCACGCCAACGAGGCGUGAGAAGGGUGAUUAAAAC [Bisomaor] (Eterna round: R96, puzzle: Same State NG 3) | 8.11 | 28.8 | 73.5 | –
13 | AAACUACAUGAGGAUCACCCAUGUGAAAACCGCAUAGGAUAUCCGCAGCAAUAAACUGACGGAGAAGGGUGACCGG [Sobearcege] (puzzle: Same State 1) | – | – | – | apparent KD of MS2 coat protein (MS2 coat protein [1]; [4]): 306 nM; apparent KD of MS2 coat protein (MS2 coat protein [1]; [5]): 414 nM; apparent KD of MS2 coat protein (MS2 coat protein [1]; [6]): 549 nM
14 | AAAGAAACUACAGGAUAUGCGUGGGAAAGAUAGGCAGAAGGGUGGAUAAUAAAUUCCAGCACAUGAGGAUCACCCAUGUACUGG [Ince] (Eterna round: R96, puzzle: Same State NG 1) | 15.6 | 17 | 22.7 | –
15 | AAAGAACAUGAGGAUCACCCAUGUGGAAGAGGCACAGGAUAUCACCUCGCACGUGCGAGGUGAGAAGGGUGAUGGU [Zalecema] (puzzle: Same State 1) | – | – | – | apparent KD of MS2 coat protein (MS2 coat protein [1]; [4]): 122 nM; apparent KD of MS2 coat protein (MS2 coat protein [1]; [5]): 80.7 nM; apparent KD of MS2 coat protein (MS2 coat protein [1]; [6]): 128 nM
16 | AAAGCACAUGAGGAUCACCCAUGUGGAAAUAACACAGGAUAUCCGGCCGAAAAUACGGUGGGAGAAGGGUGACCUA [Inxetemama] (puzzle: Same State 1) | – | – | – | apparent KD of MS2 coat protein (MS2 coat protein [1]; [4]): 302 nM; apparent KD of MS2 coat protein (MS2 coat protein [1]; [5]): 60.4 nM; apparent KD of MS2 coat protein (MS2 coat protein [1]; [6]): 86.7 nM
17 | AAAGCACAUGAGGAUCACCCAUGUGGAAAUAACACAGGAUAUCCGGCCGAAACUAAGGUGGGAGAAGGGUGACCUA [Aeriste] (puzzle: Same State 1) | – | – | – | apparent KD of MS2 coat protein (MS2 coat protein [1]; [4]): 191 nM; apparent KD of MS2 coat protein (MS2 coat protein [1]; [5]): 40.2 nM; apparent KD of MS2 coat protein (MS2 coat protein [1]; [6]): 73.5 nM
18 | AAAGGAUGAUGUUACAUGAGGAUCACCCAUGUAGUGAUAACUAAGGAUAUGUGUUAAACCAGUUAAUAGAAGGUAGGAUCAUUA [AK SSNG3-V2-6] (Eterna round: R96, puzzle: Same State NG 3) | 35.1 | 43.8 | 49.4 | –
19 | UUCGUUUGCGGAAGGAGCGACGGACAUCGGUGACCCACGCACAUGAGGAUCACCCAUGUACGUCAGGUAGGUCGCCGCUAAGAGU [XArg-B4] | – | – | – | apparent KD of MS2 coat protein (MS2 coat protein [2]; input ligand: arginine 13.2 mM): 20.3 nM; apparent KD of MS2 coat protein (MS2 coat protein [2]; input ligand: none): 17.4 nM; apparent KD of MS2 coat protein (MS2 coat protein [2]; [7]): 47.4 nM; apparent KD of MS2 coat protein (MS2 coat protein [2]; input ligand: theophylline 2 mM): 41.3 nM; apparent KD of MS2 coat protein (MS2 coat protein [2]; [8]): 12.4 nM
20 | UUCUACAUGAGGAUCACCCAUGUGGGUGAUACCAGCACUUUUUGGUGCCCUUGGCAGCACAUGAGAAUACCGUACGAUCGGCGAU [Arainbi] | – | – | – | apparent KD of MS2 coat protein (MS2 coat protein [2]; input ligand: arginine 13.2 mM): 122 nM; apparent KD of MS2 coat protein (MS2 coat protein [2]; [7]): 500 nM; apparent KD of MS2 coat protein (MS2 coat protein [2]; [8]): 609 nM
